Here are results for five molecules from patent US20260232734A1 (published 2026).

The target in test [1] is T1, KRAS wild type peptide on HLA-A*11:01 (human).
T1 peptide: VVVGAGGVGK
The experiment in a line: activation reporter or marker.

Test [2] addresses T2, KRAS G12D peptide on HLA-A*11:01 (human).
T2 peptide: VVVGADGVGK
The experiment in a line: activation reporter or marker.

Test [3] addresses KRAS G12D neoantigen endogenously presented by HLA A*11:01 on KRAS-p.G12D tumor or transfected cell lines (human). The experiment in a line: cell-based or functional assay.
In test [4] the target is T3, KRAS G12D peptide on HLA-A*11:01 (human).
T3 peptide: VVGADGVGK
The experiment in a line: killing.

Test [5] addresses T1, KRAS wild type peptide on HLA-A*11:01. The experiment in a line: killing.
For test [6], the target named is T2, KRAS G12D peptide on HLA-A*11:01. Kind of test: killing.
The target of test [7] is T4, KRAS wild type peptide on HLA-A*11:01 (human).
T4 peptide: VVGAGGVGK
Kind of test: killing.

The target in test [8] is T3, KRAS G12D peptide on HLA-A*11:01. Kind of test: cytokine release.
The target of test [9] is T2, KRAS G12D peptide on HLA-A*11:01. Kind of test: cytokine release.

B1: EE208_KRAS_1 (TCR, V domains shown)
Valpha: GNSVTQMEGPVTLSEEAFLTINCTYTATGYPSLFWYVQYPGEGLQLLLKATKADDKGSNKGFEATYRKETTSFHLEKGSVQVSDSAVYFCALSDGAGGFKTIFGAGTRLFVKA
Vbeta: EADIYQTPRYLVIGTGKKITLECSQTMGHDKMYWYQQDPGMELHLIHYSYGVNSTEKGDLSSESTVSRIRTEHFPLTLESARPSHTSQYLCASSESLYNEQFFGPGTRLTVL
B1: the binding result was “no recognition” in test [1] and “recognises” in [2].

B2: EE209_2 TCR (SEQ ID NOs: 12 and 13; beta chain using TRBC2-201) (TCR)
TCR alpha: ILNVEQSPQSLHVQEGDSTNFTCSFPSSNFYALHWYRWETAKSPEALFVMTLNGDEKKKGRISATLNTKEGYSYLYIKGSQPEDSATYLCAFLPGYSTLTFGKGTMLLVSPDIQNPDPAVYQLRDSKSSDKSVCLFTDFDSQTNVSQSKDSDVYITDKTVLDMRSMDFKSNSAVAWSNKSDFACANAFNNSIIPEDTFFPSPESSCDVKLVEKSFETDTNLNFQNLSVIGFRILLLKVAGFNLLMTLRLWSS
TCR beta: DAGITQSPRYKITETGRQVTLMCHQTWSHSYMFWYRQDLGHGLRLIYYSAAADITDKGEVPDGYVVSRSKTENFPLTLESATRSQTSVYFCASSVGRGGTEAFFGQGTRLTVVEDLKNVFPPKVAVFEPSEAEISHTQKATLVCLATGFYPDHVELSWWVNGKEVHSGVSTDPQPLKEQPALNDSRYCLSSRLRVSATFWQNPRNHFRCQVQFYGLSENDEWTQDRAKPVTQIVSAEAWGRADCGFTSESYQQGVLSATILYEILLGKATLYAVLVSALVLMAMVKRKDSRG
As to B2, in test [3], the CD137 upregulation was 7 of 7 lines, the IFNg production was 5 of 7 lines, the granzyme B production was 6 of 7 lines and the killing activity (impedance assay) is 5 of 7 lines.

B3: EE209_2 TCR (TCR, V domains shown)
Valpha: ILNVEQSPQSLHVQEGDSTNFTCSFPSSNFYALHWYRWETAKSPEALFVMTLNGDEKKKGRISATLNTKEGYSYLYIKGSQPEDSATYLCAFLPGYSTLTFGKGTMLLVSP
Vbeta: DAGITQSPRYKITETGRQVTLMCHQTWSHSYMFWYRQDLGHGLRLIYYSAAADITDKGEVPDGYVVSRSKTENFPLTLESATRSQTSVYFCASSVGRGGTEAFFGQGTRLTVV
For the molecule B3, the binding result in [4] is listed as “recognises”; in test [5] it was “no recognition”; in test [6], “recognises”; in test [7], “no recognition”.

B4: EE184_KRAS_8a (TCR, V domains shown)
Valpha: AQTVTQSQPEMSVQEAETVTLSCTYDTSESDYYLFWYKQPPSRQMILVIRQEAYKQQNATENRFSVNFQKAAKSFSLKISDSQLGDAAMYFCAYKKYNDMRFGAGTRLTVKP
Vbeta: DGGITQSPKYLFRKEGQNVTLSCEQNLNHDAMYWYRQDPGQGLRLIYYSQIVNDFQKGDIAEGYSVSREKKESFPLTVTSAQKNPTAFYLCASSTGAGAFRTEAFFGQGTRLTVV
For the molecule B4, the binding result in test [1] is given as “no recognition”; in test [4], “recognises”; in test [6], “recognises”.

B5: PD6_KRASmut_22 (TCR, V domains shown)
Valpha: AQTVTQSQPEMSVQEAETVTLSCTYDTSESDYYLFWYKQPPSRQMILVIRQEAYKQQNATENRFSVNFQKAAKSFSLKISDSQLGDAAMYFCAYYSGGGADGLTFGKGTHLIIQP
Vbeta: SAVISQKPSRDICQRGTSLTIQCQVDSQVTMMFWYRQQPGQSLTLIATANQGSEATYESGFVIDKFPISRPNLTFSTLTVSNMSPEDSSIYLCSVTWAGGWSYGYTFGSGTRLTVV
As to B5, the binding result in test [8] and in [9] was “recognises” throughout.
